Assay results: article PMC12758282

Target: T1, RstA (Escherichia coli O157:H7 (EHEC; strain not given in the material)) (UniProt P52108)
T1 sequence: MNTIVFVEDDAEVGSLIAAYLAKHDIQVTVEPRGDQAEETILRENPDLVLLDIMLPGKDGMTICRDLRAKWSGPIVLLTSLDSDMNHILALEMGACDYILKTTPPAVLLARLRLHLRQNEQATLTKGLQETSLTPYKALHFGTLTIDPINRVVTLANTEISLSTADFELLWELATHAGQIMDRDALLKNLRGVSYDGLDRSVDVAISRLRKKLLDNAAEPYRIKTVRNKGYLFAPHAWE
Experiment: EMSA

## GTTATCGCAGGGAGCCACACAGCGTGTGTTGGACGCGACTCAGCTTTACCTTGGTGAGATTGGTTATTCACCACTGTTAACGGCCGAAGAAGAAGTTTATTTTGCGCGTCGCGCACTGCGTGGAGATGTCGCCTCTCGCCGCCGGATGATCGAGAGTAACTTGCGTCTGGTGGTAAAA (double strand) [rpoS fragment]
  binding: no binding
